From patent US6998106 come the findings set out here.

Assay [1] deals with EGFRvIII (form used in the assay not stated) (UniProt P00533). In words: surface plasmon resonance.
Assay [2] deals with EGFRvIII (mutant epidermal growth factor receptor) expressed by the U87MGΔEGFR cell line (UniProt P00533). As to the kind of experiment: binding of radiolabeled mAb to U87MGΔEGFR cells (Scatchard analysis per Example 2).
Assay [3] shares this target. As to the kind of experiment: binding of labeled mAb to EGFRvIII-positive tumor xenograft homogenate, Lindmo method (per Example 2).
The target of assay [4] is EGFRvIII (form used in the assay not stated) (UniProt P00533). As to the kind of experiment: SIPC-labeled scFv; method not stated.
For assay [5] the target is unchanged. In words: SIPC-labeled scFv; immunoreactive fraction, antigen source not stated.

Substance “L8A4 scFv dimer with a 5 amino acid linker between the VL and VH domains” came in with a Ka in assay [1] of 5.5e+09 M⁻¹.

Consider “^211 At-labeled L8A4 (anti-EGFRvIII mAb L8A4 labeled with N-succinimidyl 5-[^211 At]astato-3-pyridinecarboxylate, SAPC) (antibody)”, for which the Ka in assay [2] turned out to be 9.7e+08 M⁻¹. For the same substance, the immunoreactive fraction in assay [3] lay in the range of 69 to 89%.

Consider “scFv monomer based on the L8A4 variable region, labeled with SIPC”, for which the Ka in assay [4] is 1.5e+08 M⁻¹. In addition, in assay [5], the immunoreactive fraction was in the range of 65 to 80%.
